Measurements: US9999664B2, “HIV-1 gp120 mini V3 loop and uses thereof” (The Scripps Research Institute, priority 2011, dated 2018)

Columns and labels:
plant lectin ConA = target: T1, plant lectin ConA (Canavalia ensiformis, UniProt P02866); assay: Neoglycolipid microarray binding, ConA; details: biotinylated ConA at 0.5 μg/ml
T1 construct: purchased Vector
Method: (§1) The microarrays (designated N-glycan-related Array Set 1) consisted of NGLs prepared by reductive amination (70) or oxime ligation (71) (Table S5). These were robotically printed onto nitrocellulose-coated glass slides as described (72), each at two levels (2 and 5 fmol/spot) in duplicate. The binding assays (70) were performed at ambient temperature. The PGTs 127 and 128 were pre-complexed with biotinylated anti-human-IgG (Vector) at a 1:3 ratio, w/w, before applying onto the slides at a final concentration of 10 μg/ml. Biotinylated ConA (Vector) was tested at 0.5 μg/ml. Binding was detected with Alexa-Fluor 647 labelled streptavidin (Molecular Probes) at 1 μg/ml. Microarray data analysis was performed with dedicated software. Binding signals were oligosaccharide dose-related. Results at 5 fmol/spot with selected oligomannose NGLs (prepared by reductive amination) are in FIG. 9A, and the full data with the 50 NGLs are shown in Table S6. Included for comparison are the results with human 2G12 (Polymun Scientific) taken from an earlier experiment performed using a different version of microarrays (73). Antibody 2G12 was analyzed at 1:10000 dilution (without pre-complexation), and the binding was detected with biotinylated anti-human-IgG followed by Alexa-Fluor 647 labelled streptavidin.

PGT 128 = assay: Neoglycolipid microarray binding, PGT 128; details: PGT 128 at 10 μg/ml pre-complexed with biotinylated anti-human-IgG; 5 fmol/spot
Method: as §1

2G12 = 2G12 at 1:10000 dilution; earlier experiment, different version of the microarray; cited from earlier work
PGT 127 = assay: Neoglycolipid microarray binding, PGT 127; details: PGT 127 at 10 μg/ml pre-complexed with biotinylated anti-human-IgG; 5 fmol/spot
Method: as §1

[1] = target: HIV-1 JR-CSF envelope (Env) on pseudovirus (HIV-1 JR-CSF) (UniProt P20871); assay: cell-based or functional assay
[2] = target: HIV-1 JR-FL envelope (Env) on pseudovirus (HIV-1 JR-FL); assay: cell-based or functional assay
[3] = target: gp120 JR-CSF (HIV-1 JR-CSF) (UniProt P20871); assay: gp120 ELISA
[4] = target: gp120 JR-FL (HIV-1 JR-FL); assay: gp120 ELISA
[5] = target: HIV-1 BaL envelope (Env) on pseudovirus (HIV-1 BaL); assay: cell-based or functional assay

Row | Compound | Fluorescence signal intensity ConA (plant lectin ConA) | Fluorescence signal intensity 128 (PGT 128) | Fluorescence signal intensity 2G12 (2G12) | Fluorescence signal intensity 127 (PGT 127) | Fold change in neutralization (IC50 variant/IC50 WT antibody) [1] [fold] | Fold change in neutralization (IC50 variant/IC50 WT antibody) [2] [fold] | fold change in gp120 binding (EC50 variant/EC50 WT) [3] [fold] | fold change in gp120 binding (EC50 variant/EC50 WT) [4] [fold] | Fold change in neutralization (IC50 variant/IC50 WT antibody) [5] [fold]
1 | CCCCCCCCCCCCCCCCOCC(COP(=O)(O)OCCNCC(NC(C)=O)C(O)C(OC1OC(CO)C(O)C(O)C1O)C(O)CO)OCCCCCCCCCCCCCCCC (centres unmarked) [Man1GN1-DH, Manβ-4GlcNAc-DH] | — (Signal less than 1) | — (Signal less than 1) | 101 | — (Signal less than 1) |  |  |  |  | 
2 | CCCCCCCCCCCCCCCCOCC(COP(=O)(O)OCCNCC(OC1OC(CO)C(O)C(O)C1O)C(O)C(O)C(O)CO)OCCCCCCCCCCCCCCCC (stereo not drawn) [Man2(α2)-DH, Manα-2Man-DH] | — (Signal less than 1) | — (Signal less than 1) | 73 | — (Signal less than 1) |  |  |  |  | 
3 | CCCCCCCCCCCCCCCCOCC(COP(=O)(O)OCCNCC(O)C(OC1OC(CO)C(O)C(O)C1O)C(O)C(O)CO)OCCCCCCCCCCCCCCCC (stereo not drawn) [Man2(α3)-DH, Manα-3Man-DH] | — (Signal less than 1) | 82 | 136 | — (Signal less than 1) |  |  |  |  | 
4 | CCCCCCCCCCCCCCCCOCC(COP(=O)(O)OCCNCC(O)C(O)C(O)C(O)COC1OC(CO)C(O)C(O)C1O)OCCCCCCCCCCCCCCCC (stereo not drawn) [Man2(α6)-DH, Manα-6Man-DH] | 608 | — (Signal less than 1) | 205 | — (Signal less than 1) |  |  |  |  | 
5 | CCCCCCCCCCCCCCCCOCC(COP(=O)(O)OCCNCC(NC(C)=O)C(O)C(OC1OC(CO)C(O)C(OC2OC(CO)C(O)C(O)C2O)C1O)C(O)CO)OCCCCCCCCCCCCCCCC (centres unmarked) [Man2GN1-DH, Manα-3Manβ-4GlcNAc-DH] | 575 | 16 | — (Signal less than 1) | — (Signal less than 1) |  |  |  |  | 
6 | CCCCCCCCCCCCCCCCOCC(COP(=O)(O)OCCNCC(NC(C)=O)C(O)C(OC1OC(CO)C(OC2OC(COC3OC(CO)C(O)C(O)C3O)C(O)C(O)C2O)C(O)C1NC(C)=O)C(O)CO)OCCCCCCCCCCCCCCCC (centres unmarked) [Man2aGN2-DH, Manα-6Manβ-4GlcNAcβ-4GlcNAc-DH] | 1,923 | — (Signal less than 1) | — (Signal less than 1) | — (Signal less than 1) |  |  |  |  | 
7 | CCCCCCCCCCCCCCCCOCC(COP(=O)(O)OCCNCC(O)C(OC1OC(CO)C(O)C(O)C1O)C(O)C(O)COC1OC(CO)C(O)C(O)C1O)OCCCCCCCCCCCCCCCC (stereo not drawn) [Man3(α3,α6)-DH] | 759 | — (Signal less than 1) | — (Signal less than 1) | — (Signal less than 1) |  |  |  |  | 
8 | CCCCCCCCCCCCCCCCOCC(COP(=O)(O)OCCNCC(NC(C)=O)C(O)C(OC1OC(CO)C(OC2OC(COC3OC(CO)C(O)C(O)C3O)C(O)C(OC3OC(CO)C(O)C(O)C3O)C2O)C(O)C1NC(C)=O)C(O)COC1OC(C)C(O)C(O)C1O)OCCCCCCCCCCCCCCCC (centres unmarked) [Man3FGN2-DH] | 20,011 | — (Signal less than 1) | 52 | — (Signal less than 1) |  |  |  |  | 
9 | CCCCCCCCCCCCCCCCOCC(COP(=O)(O)OCCNCC(NC(C)=O)C(O)C(OC1OC(CO)C(OC2OC(COC3OC(CO)C(O)C(O)C3O)C(O)C(OC3OC(CO)C(O)C(O)C3O)C2OC2OCC(O)C(O)C2O)C(O)C1NC(C)=O)C(O)CO)OCCCCCCCCCCCCCCCC (centres unmarked) [Man3XylGN2-DH] | 977 | — (Signal less than 1) | — (Signal less than 1) | — (Signal less than 1) |  |  |  |  | 
10 | CCCCCCCCCCCCCCCCOCC(COP(=O)(O)OCCNCC(NC(C)=O)C(O)C(OC1OC(CO)C(OC2OC(COC3OC(CO)C(O)C(O)C3O)C(O)C(OC3OC(CO)C(O)C(O)C3O)C2O)C(O)C1NC(C)=O)C(O)CO)OCCCCCCCCCCCCCCCC (centres unmarked) [Man3aGN2-DH] | 14,192 | — (Signal less than 1) | 24 | — (Signal less than 1) |  |  |  |  | 
11 | CCCCCCCCCCCCCCCCOCC(COP(=O)(O)OCCNCC(NC(C)=O)C(O)C(OC1OC(CO)C(OC2OC(COC3OC(CO)C(O)C(OC4OC(CO)C(O)C(O)C4O)C3O)C(O)C(OC3OC(CO)C(O)C(O)C3O)C2O)C(O)C1NC(C)=O)C(O)CO)OCCCCCCCCCCCCCCCC (centres unmarked) [Man4aGN2-DH] | 2,885 | 26 | — (Signal less than 1) | — (Signal less than 1) |  |  |  |  | 
12 | PGT 128 IgG variant HC A30Q (antibody) |  |  |  |  | 2.4 | 11.4 | 1.9 | 1.5 | 
13 | PGT 128 IgG variant HC A70D (antibody) |  |  |  |  | 1.9 |  | 0.5 | 1 | 
14 | PGT 128 IgG variant HC C32A (antibody) |  |  |  |  | > 2000 | > 3000 |  |  | > 4000
15 | PGT 128 IgG variant HC C32A C52bA (antibody) |  |  |  |  | > 2000 | > 3000 |  |  | > 4000
16 | PGT 128 IgG variant HC C52bA (antibody) |  |  |  |  | > 2000 | > 3000 |  |  | > 4000
17 | PGT 128 IgG variant HC D100dA (antibody) |  |  |  |  | 0.5 | 0.3 | 0.1 | 0.1 | 
18 | PGT 128 IgG variant HC F79A (antibody) |  |  |  |  | 0.9 |  | 0.5 | 0.6 | 
19 | PGT 128 IgG variant HC K64A (antibody) |  |  |  |  | 1.2 | 1.3 | 0.8 | 0.4 | 
20 | PGT 128 IgG variant HC K75A (antibody) |  |  |  |  | 2.9 | 2.9 | 2.1 | 1.6 | 
21 | PGT 128 IgG variant HC P74A (antibody) |  |  |  |  | 0.8 | 1.2 | 0.9 | 0.8 | 
22 | PGT 128 IgG variant HC S28A (antibody) |  |  |  |  | 1.2 | 0.9 | 0.8 | 0.6 | 
23 | PGT 128 IgG variant HC T73A (antibody) |  |  |  |  | 1.6 | 77.6 | 1.6 | 2.2 | 
24 | PGT 128 IgG variant HC T100cA (antibody) |  |  |  |  | 1.5 | 1.2 | 1.2 | 0.9 | 
25 | PGT 128 IgG variant LC D95aA (antibody) |  |  |  |  | 68.5 | > 3000 |  |  | > 4000
26 | PGT 128 IgG variant LC N94A (antibody) |  |  |  |  | 3.5 | 1.3 | 0.7 | 1.1 | 
27 | PGT 128 IgG variant LC W95A (antibody) |  |  |  |  | > 2000 | > 3000 |  |  | > 4000
